In patent US20140179594A1, “STREPTOCOCCUS BACTERIOPHAGE LYSINS FOR TREATMENT OF GRAM POSITIVE BACTERIA IN COMPANION ANIMALS AND LIVESTOCK” (priority 2011, published 2014):

Tests used:
Assay in all cases: ΔPlySs1 OD600 lysis, 1 hr
Type in all cases: cell-based
S. suis ST3 = tested on: S. suis ST3
Experimental: (§1) Given the above experiments, the following optimal buffering conditions were employed for all further in vitro experiments with ΔPlySs1: 20 mM phosphate buffer, pH=7.8, 2 mM EDTA. A range of lysin concentrations, from 6.5-130 μg/ml, were introduced to live S. suis cells in this buffer. Three strains were considered particularly relevant: 7711, the serotype 7 strain that encodes PlySs1; 5735, the serotype 2 reference strain; and 7997, a highly virulent serotype 9 strain. In terms of bacterial viability, only the highest PlySs1-concentration (130 μg/ml) led to a >90% decrease in CFUs for 7711, S735, and 7997 after 1 hr treatment (TABLE 2). The lysin was also tested against actively-dividing cells in broth culture (strain 7711) (FIG. 20).
(§2) ΔPlySs1 was further tested against a panel of 19 other S. suis strains of diverse serotypes, as well as other species of Gram-positive bacteria. The same lysin concentrations were used as above. For each dosage, the observed lysis values after 1 hr are listed in TABLE 3 and TABLE 4, and the information is summarized graphically in FIG. 21.

S. suis ST13 = tested on: S. suis ST13
Experimental: as §1, §2

S. suis 7197 (ST7) = tested on: S. suis 7197 (ST7)
Experimental: as §1, §2

S. suis ST10 = tested on: S. suis ST10
Experimental: as §1, §2

S. suis ST7 = tested on: S. suis ST7
Experimental: as §1, §2

S. suis ST2 = tested on: S. suis ST2
Experimental: as §1, §2

S. suis ST5 = tested on: S. suis ST5
Experimental: as §1, §2

S. suis ST1 = tested on: S. suis ST1
Experimental: as §1, §2

S. suis ST14 = tested on: S. suis ST14
Experimental: as §1, §2

S. suis ST8 = tested on: S. suis ST8
Experimental: as §1, §2

S. suis ST9 = tested on: S. suis ST9
Experimental: as §1, §2

S. suis ST11 = tested on: S. suis ST11
Experimental: as §1, §2

S. suis 10 (ST2) = tested on: S. suis 10 (ST2)
Experimental: as §1, §2

S. suis ST4 = tested on: S. suis ST4
Experimental: as §1, §2

S. suis 6112 (ST1) = tested on: S. suis 6112 (ST1)
Experimental: as §1, §2

S. suis 6388 (ST1) = tested on: S. suis 6388 (ST1)
Experimental: as §1, §2

S. suis ST6 = tested on: S. suis ST6
Experimental: as §1, §2

S. oralis 35037 = tested on: S. oralis 35037
S. salivarius 9222 = tested on: S. salivarius 9222
S. sanguinis 10556 = tested on: S. sanguinis 10556
L. monocytogenes HER1084 = tested on: L. monocytogenes HER1084

B1: ΔPlySs1: truncated PlySs1 lysin with N-terminal enzymatic and central binding domains, N-terminal 254 amino acids, SEQ ID NO:2 (protein, listed as Streptococcus suis)
chain: MTINLETSIRWMSDRVGKVSYSMDYRNGPNSYDCSSAVYYALMAGGAISAGWAVNTEYMHDWLIRNGYVLVAENKPFNAQRHDVCILGKRGYSSGAGGHVVIFVDNVNVIHCNYARNGISIDNYNQVHRGMYYYLYRPANQPSISNKSLDQLVKETLAGVHGNGDTRKASLGSQYEAVMAVINGKASASEKSDEELAREVLAGKHGAGEDRKRSLGPRYEPVQAKVNELLKAKEKPSETAKNEPQTVQFKEDGDL
1-hour treated/untreated OD600-ratio (S. suis ST3; 6.5 μg/ml): 0.81 | 1-hour treated/untreated OD600-ratio (S. suis ST3; 13 μg/ml): 0.71 | 1-hour treated/untreated OD600-ratio (S. suis ST3; 30 μg/ml): 0.48 | 1-hour treated/untreated OD600-ratio (S. suis ST3; 65 μg/ml): 0.32 | 1-hour treated/untreated OD600-ratio (S. suis ST3; 130 μg/ml): 0.16 | 1-hour treated/untreated OD600-ratio (S. suis ST13; 6.5 μg/ml): 0.32 | 1-hour treated/untreated OD600-ratio (S. suis ST13; 13 μg/ml): 0.17 | 1-hour treated/untreated OD600-ratio (S. suis ST13; 30 μg/ml): 0.04 | 1-hour treated/untreated OD600-ratio (S. suis ST13; 65 μg/ml): 0.02 | 1-hour treated/untreated OD600-ratio (S. suis ST13; 130 μg/ml): 0.02 | 1-hour treated/untreated OD600-ratio (S. suis 7197 (ST7); 6.5 μg/ml): 0.64 | 1-hour treated/untreated OD600-ratio (S. suis 7197 (ST7); 13 μg/ml): 0.49 | 1-hour treated/untreated OD600-ratio (S. suis 7197 (ST7); 30 μg/ml): 0.39 | 1-hour treated/untreated OD600-ratio (S. suis 7197 (ST7); 65 μg/ml): 0.16 | 1-hour treated/untreated OD600-ratio (S. suis 7197 (ST7); 130 μg/ml): 0.07 | 1-hour treated/untreated OD600-ratio (S. suis ST10; 6.5 μg/ml): 0.85 | 1-hour treated/untreated OD600-ratio (S. suis ST10; 13 μg/ml): 0.72 | 1-hour treated/untreated OD600-ratio (S. suis ST10; 30 μg/ml): 0.55 | 1-hour treated/untreated OD600-ratio (S. suis ST10; 65 μg/ml): 0.44 | 1-hour treated/untreated OD600-ratio (S. suis ST10; 130 μg/ml): 0.28 | 1-hour treated/untreated OD600-ratio (S. suis ST7; 6.5 μg/ml): 0.65 | 1-hour treated/untreated OD600-ratio (S. suis ST7; 13 μg/ml): 0.47 | 1-hour treated/untreated OD600-ratio (S. suis ST7; 30 μg/ml): 0.34 | 1-hour treated/untreated OD600-ratio (S. suis ST7; 65 μg/ml): 0.22 | 1-hour treated/untreated OD600-ratio (S. suis ST7; 130 μg/ml): 0.11 | 1-hour treated/untreated OD600-ratio (S. suis ST2; 6.5 μg/ml): 0.79 | 1-hour treated/untreated OD600-ratio (S. suis ST2; 13 μg/ml): 0.70 | 1-hour treated/untreated OD600-ratio (S. suis ST2; 30 μg/ml): 0.49 | 1-hour treated/untreated OD600-ratio (S. suis ST2; 65 μg/ml): 0.34 | 1-hour treated/untreated OD600-ratio (S. suis ST2; 130 μg/ml): 0.17 | 1-hour treated/untreated OD600-ratio (S. suis ST5; 6.5 μg/ml): 0.78 | 1-hour treated/untreated OD600-ratio (S. suis ST5; 13 μg/ml): 0.59 | 1-hour treated/untreated OD600-ratio (S. suis ST5; 30 μg/ml): 0.39 | 1-hour treated/untreated OD600-ratio (S. suis ST5; 65 μg/ml): 0.22 | 1-hour treated/untreated OD600-ratio (S. suis ST5; 130 μg/ml): 0.10 | 1-hour treated/untreated OD600-ratio (S. suis ST1; 6.5 μg/ml): 0.80 | 1-hour treated/untreated OD600-ratio (S. suis ST1; 13 μg/ml): 0.34 | 1-hour treated/untreated OD600-ratio (S. suis ST1; 30 μg/ml): 0.36 | 1-hour treated/untreated OD600-ratio (S. suis ST1; 65 μg/ml): 0.19 | 1-hour treated/untreated OD600-ratio (S. suis ST1; 130 μg/ml): 0.06 | 1-hour treated/untreated OD600-ratio (S. suis ST14; 6.5 μg/ml): 0.79 | 1-hour treated/untreated OD600-ratio (S. suis ST14; 13 μg/ml): 0.57 | 1-hour treated/untreated OD600-ratio (S. suis ST14; 30 μg/ml): 0.33 | 1-hour treated/untreated OD600-ratio (S. suis ST14; 65 μg/ml): 0.15 | 1-hour treated/untreated OD600-ratio (S. suis ST14; 130 μg/ml): 0.06 | 1-hour treated/untreated OD600-ratio (S. suis ST8; 6.5 μg/ml): 0.25 | 1-hour treated/untreated OD600-ratio (S. suis ST8; 13 μg/ml): 0.12 | 1-hour treated/untreated OD600-ratio (S. suis ST8; 30 μg/ml): 0.06 | 1-hour treated/untreated OD600-ratio (S. suis ST8; 65 μg/ml): 0.03 | 1-hour treated/untreated OD600-ratio (S. suis ST8; 130 μg/ml): 0.03 | 1-hour treated/untreated OD600-ratio (S. suis ST9; 6.5 μg/ml): 0.50 | 1-hour treated/untreated OD600-ratio (S. suis ST9; 13 μg/ml): 0.30 | 1-hour treated/untreated OD600-ratio (S. suis ST9; 30 μg/ml): 0.23 | 1-hour treated/untreated OD600-ratio (S. suis ST9; 65 μg/ml): 0.13 | 1-hour treated/untreated OD600-ratio (S. suis ST9; 130 μg/ml): 0.05 | 1-hour treated/untreated OD600-ratio (S. suis ST11; 6.5 μg/ml): 0.64 | 1-hour treated/untreated OD600-ratio (S. suis ST11; 13 μg/ml): 0.47 | 1-hour treated/untreated OD600-ratio (S. suis ST11; 30 μg/ml): 0.32 | 1-hour treated/untreated OD600-ratio (S. suis ST11; 65 μg/ml): 0.19 | 1-hour treated/untreated OD600-ratio (S. suis ST11; 130 μg/ml): 0.07 | 1-hour treated/untreated OD600-ratio (S. suis 10 (ST2); 6.5 μg/ml): 0.29 | 1-hour treated/untreated OD600-ratio (S. suis 10 (ST2); 13 μg/ml): 0.18 | 1-hour treated/untreated OD600-ratio (S. suis 10 (ST2); 30 μg/ml): 0.10 | 1-hour treated/untreated OD600-ratio (S. suis 10 (ST2); 65 μg/ml): 0.05 | 1-hour treated/untreated OD600-ratio (S. suis 10 (ST2); 130 μg/ml): 0.02 | 1-hour treated/untreated OD600-ratio (S. suis ST4; 6.5 μg/ml): 0.63 | 1-hour treated/untreated OD600-ratio (S. suis ST4; 13 μg/ml): 0.47 | 1-hour treated/untreated OD600-ratio (S. suis ST4; 30 μg/ml): 0.32 | 1-hour treated/untreated OD600-ratio (S. suis ST4; 65 μg/ml): 0.22 | 1-hour treated/untreated OD600-ratio (S. suis ST4; 130 μg/ml): 0.12 | 1-hour treated/untreated OD600-ratio (S. suis 6112 (ST1); 6.5 μg/ml): 0.14 | 1-hour treated/untreated OD600-ratio (S. suis 6112 (ST1); 13 μg/ml): 0.11 | 1-hour treated/untreated OD600-ratio (S. suis 6112 (ST1); 30 μg/ml): 0.06 | 1-hour treated/untreated OD600-ratio (S. suis 6112 (ST1); 65 μg/ml): 0.02 | 1-hour treated/untreated OD600-ratio (S. suis 6112 (ST1); 130 μg/ml): 0.01 | 1-hour treated/untreated OD600-ratio (S. suis 6388 (ST1); 6.5 μg/ml): 0.15 | 1-hour treated/untreated OD600-ratio (S. suis 6388 (ST1); 13 μg/ml): 0.13 | 1-hour treated/untreated OD600-ratio (S. suis 6388 (ST1); 30 μg/ml): 0.06 | 1-hour treated/untreated OD600-ratio (S. suis 6388 (ST1); 65 μg/ml): 0.03 | 1-hour treated/untreated OD600-ratio (S. suis 6388 (ST1); 130 μg/ml): 0.02 | 1-hour treated/untreated OD600-ratio (S. suis ST6; 6.5 μg/ml): 0.76 | 1-hour treated/untreated OD600-ratio (S. suis ST6; 13 μg/ml): 0.56 | 1-hour treated/untreated OD600-ratio (S. suis ST6; 30 μg/ml): 0.40 | 1-hour treated/untreated OD600-ratio (S. suis ST6; 65 μg/ml): 0.21 | 1-hour treated/untreated OD600-ratio (S. suis ST6; 130 μg/ml): 0.06 | 1-hour treated/untreated OD600-ratio (S. oralis 35037; 6.5 μg/ml): 0.30 | 1-hour treated/untreated OD600-ratio (S. oralis 35037; 13 μg/ml): 0.13 | 1-hour treated/untreated OD600-ratio (S. oralis 35037; 30 μg/ml): 0.08 | 1-hour treated/untreated OD600-ratio (S. oralis 35037; 65 μg/ml): 0.07 | 1-hour treated/untreated OD600-ratio (S. oralis 35037; 130 μg/ml): 0.04 | 1-hour treated/untreated OD600-ratio (S. salivarius 9222; 6.5 μg/ml): 0.80 | 1-hour treated/untreated OD600-ratio (S. salivarius 9222; 13 μg/ml): 0.76 | 1-hour treated/untreated OD600-ratio (S. salivarius 9222; 30 μg/ml): 0.56 | 1-hour treated/untreated OD600-ratio (S. salivarius 9222; 65 μg/ml): 0.53 | 1-hour treated/untreated OD600-ratio (S. salivarius 9222; 130 μg/ml): 0.37 | 1-hour treated/untreated OD600-ratio (S. sanguinis 10556; 6.5 μg/ml): 0.48 | 1-hour treated/untreated OD600-ratio (S. sanguinis 10556; 13 μg/ml): 0.44 | 1-hour treated/untreated OD600-ratio (S. sanguinis 10556; 30 μg/ml): 0.28 | 1-hour treated/untreated OD600-ratio (S. sanguinis 10556; 65 μg/ml): 0.21 | 1-hour treated/untreated OD600-ratio (S. sanguinis 10556; 130 μg/ml): 0.11 | 1-hour treated/untreated OD600-ratio (L. monocytogenes HER1084; 6.5 μg/ml): 0.63 | 1-hour treated/untreated OD600-ratio (L. monocytogenes HER1084; 13 μg/ml): 0.52 | 1-hour treated/untreated OD600-ratio (L. monocytogenes HER1084; 30 μg/ml): 0.26 | 1-hour treated/untreated OD600-ratio (L. monocytogenes HER1084; 65 μg/ml): 0.14 | 1-hour treated/untreated OD600-ratio (L. monocytogenes HER1084; 130 μg/ml): 0.04
